Here are results for six molecules from ChEMBL document CHEMBL2074239, “Characterization of uremic toxin transport by organic anion transporters in the kidney” (Kidney Int, 2004).

The target in data set [1] is T1, Organic anion transporter 3 (Rattus norvegicus, UniProt Q9R1U7).
T1 sequence (Q9R1U7 whole entry): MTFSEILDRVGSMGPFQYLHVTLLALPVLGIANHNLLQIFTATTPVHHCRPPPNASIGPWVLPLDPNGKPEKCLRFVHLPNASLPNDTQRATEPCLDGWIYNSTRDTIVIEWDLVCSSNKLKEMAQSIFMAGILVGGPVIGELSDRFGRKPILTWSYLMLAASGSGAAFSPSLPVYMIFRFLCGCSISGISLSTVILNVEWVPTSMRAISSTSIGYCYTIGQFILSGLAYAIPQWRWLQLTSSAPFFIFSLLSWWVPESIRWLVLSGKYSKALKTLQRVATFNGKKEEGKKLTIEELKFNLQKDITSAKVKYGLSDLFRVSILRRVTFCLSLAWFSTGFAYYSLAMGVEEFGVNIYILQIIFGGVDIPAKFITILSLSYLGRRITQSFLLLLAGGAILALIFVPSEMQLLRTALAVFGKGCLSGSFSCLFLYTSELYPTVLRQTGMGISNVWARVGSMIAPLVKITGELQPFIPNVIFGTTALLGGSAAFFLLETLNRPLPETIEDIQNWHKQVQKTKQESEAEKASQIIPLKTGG
The data set can be described thus: TP_TRANSPORTER: inhibition of benzylpenicillin uptake in Oat3-expressing HEK293 cells. The format is functional, cell-based.

Data set [2] has as its target T2, Organic anion transporter 3 (Homo sapiens, UniProt Q8TCC7).
T2 sequence (Q8TCC7 whole entry): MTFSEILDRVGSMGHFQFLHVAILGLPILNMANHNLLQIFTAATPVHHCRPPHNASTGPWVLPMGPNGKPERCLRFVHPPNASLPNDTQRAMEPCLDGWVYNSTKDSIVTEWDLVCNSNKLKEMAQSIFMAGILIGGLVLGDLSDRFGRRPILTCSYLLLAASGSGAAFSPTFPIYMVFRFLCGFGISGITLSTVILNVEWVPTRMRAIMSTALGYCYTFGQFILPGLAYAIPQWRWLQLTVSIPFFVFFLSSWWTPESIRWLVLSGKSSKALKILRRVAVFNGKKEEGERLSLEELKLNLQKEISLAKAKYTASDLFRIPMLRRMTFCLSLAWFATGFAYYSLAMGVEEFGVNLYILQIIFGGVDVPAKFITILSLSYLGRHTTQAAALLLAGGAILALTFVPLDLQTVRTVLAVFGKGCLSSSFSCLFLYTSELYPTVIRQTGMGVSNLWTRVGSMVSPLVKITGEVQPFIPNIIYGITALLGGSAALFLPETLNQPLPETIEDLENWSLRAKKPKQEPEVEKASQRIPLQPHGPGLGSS
The data set can be described thus: TP_TRANSPORTER: inhibition of benzylpenicillin uptake in OAT3-expressing HEK293 cells. Format: functional, cell-based.

Substrate in data set [3]: O=C(O)CNC(=O)c1ccccc1
The data set can be described thus: cells, lysate or membranes named.

Substrate in data set [4]: CCCc1oc(CCC(=O)O)c(C(=O)O)c1C
Nature of the data set: (§1) TP_TRANSPORTER: uptake in Oat3-expressing HEK293 cells. Format: functional, cell-based.

Substrate in data set [5]: O=S(=O)(O)Oc1c[nH]c2ccccc12
The description is as §1. The format is functional, cell-based.

Substrate in data set [6]: CCCc1oc(CCC(=O)O)c(C(=O)O)c1C
The data set can be described thus: (§2) TP_TRANSPORTER: uptake in OAT3-expressing HEK293 cells. Format: functional, cell-based.

Substrate in data set [7]: O=S(=O)(O)Oc1c[nH]c2ccccc12
The description is as §2. Format: functional, cell-based.

Substrate in data set [8]: CC(=O)Oc1c[nH]c2ccccc12
Nature of the data set: (§3) TP_TRANSPORTER: uptake in OAT1-expressing HEK293 cell. Format: functional, cell-based.

Substrate in data set [9]: CCCc1oc(CCC(=O)O)c(C(=O)O)c1C
The description is as §3. The format is functional, cell-based.

By Ki is commonly meant the equilibrium dissociation constant of an inhibitor or competing ligand from its target. The low end stands for higher affinity, the high end for lower affinity. As for `CC(=O)Oc1c[nH]c2ccccc12` [INDOLE ACETATE], the Ki amounted to 582 µM in data set [1] and 491 µM in data set [2].

As to `O=C(O)CNC(=O)c1ccccc1` [HIPPURIC ACID], the values for the Ki in data set [1] and in [2] were 19 µM and 31 µM, respectively.

B1: Solute carrier family 22 member 6 (Rattus norvegicus) (protein)
chain: MAFNDLLKQVGGVGRFQLIQVTMVVAPLLLMASHNTLQNFTAAIPPHHCRPPANANLSKDGGLEAWLPLDKQGQPESCLRFTSPQWGPPFYNGTEANGTRVTEPCIDGWVYDNSTFPSTIVTEWNLVCSHRAFRQLAQSLYMVGVLLGAMVFGYLADRLGRRKVLILNYLQTAVSGTCAAYAPNYTVYCVFRLLSGMSLASIAINCMTLNVEWMPIHTRAYVGTLIGYVYSLGQFLLAGIAYAVPHWRHLQLVVSVPFFIAFIYSWFFIESARWYSSSGRLDLTLRALQRVARINGKQEEGAKLSIEVLRTSLQKELTLSKGQASAMELLRCPTLRHLFLCLSMLWFATSFAYYGLVMDLQGFGVSMYLIQVIFGAVDLPAKFVCFLVINSMGRRPAQMASLLLAGICILVNGIIPKSHTIIRTSLAVLGKGCLASSFNCIFLYTGELYPTVIRQTGLGMGSTMARVGSIVSPLVSMTAEFYPSMPLFIFGAVPVVASAVTALLPETLGQPLPDTVQDLKSRSRGKQNQQQQEQQKQMMPLQASTQEKNGL
For orientation: Km means the substrate concentration at which the rate is half of its maximum. B1: the Michaelis-Menten constant (Km) in data set [3] stood at 28 µM.

B2: Organic anion transporter 3 (Rattus norvegicus) (protein)
chain: MTFSEILDRVGSMGPFQYLHVTLLALPVLGIANHNLLQIFTATTPVHHCRPPPNASIGPWVLPLDPNGKPEKCLRFVHLPNASLPNDTQRATEPCLDGWIYNSTRDTIVIEWDLVCSSNKLKEMAQSIFMAGILVGGPVIGELSDRFGRKPILTWSYLMLAASGSGAAFSPSLPVYMIFRFLCGCSISGISLSTVILNVEWVPTSMRAISSTSIGYCYTIGQFILSGLAYAIPQWRWLQLTSSAPFFIFSLLSWWVPESIRWLVLSGKYSKALKTLQRVATFNGKKEEGKKLTIEELKFNLQKDITSAKVKYGLSDLFRVSILRRVTFCLSLAWFSTGFAYYSLAMGVEEFGVNIYILQIIFGGVDIPAKFITILSLSYLGRRITQSFLLLLAGGAILALIFVPSEMQLLRTALAVFGKGCLSGSFSCLFLYTSELYPTVLRQTGMGISNVWARVGSMIAPLVKITGELQPFIPNVIFGTTALLGGSAAFFLLETLNRPLPETIEDIQNWHKQVQKTKQESEAEKASQIIPLKTGG
For the molecule B2, the results for the Km in data set [4] and in data set [5] were 11 µM and 174 µM, respectively.

B3: Organic anion transporter 3 (Homo sapiens) (protein)
chain: MTFSEILDRVGSMGHFQFLHVAILGLPILNMANHNLLQIFTAATPVHHCRPPHNASTGPWVLPMGPNGKPERCLRFVHPPNASLPNDTQRAMEPCLDGWVYNSTKDSIVTEWDLVCNSNKLKEMAQSIFMAGILIGGLVLGDLSDRFGRRPILTCSYLLLAASGSGAAFSPTFPIYMVFRFLCGFGISGITLSTVILNVEWVPTRMRAIMSTALGYCYTFGQFILPGLAYAIPQWRWLQLTVSIPFFVFFLSSWWTPESIRWLVLSGKSSKALKILRRVAVFNGKKEEGERLSLEELKLNLQKEISLAKAKYTASDLFRIPMLRRMTFCLSLAWFATGFAYYSLAMGVEEFGVNLYILQIIFGGVDVPAKFITILSLSYLGRHTTQAAALLLAGGAILALTFVPLDLQTVRTVLAVFGKGCLSSSFSCLFLYTSELYPTVIRQTGMGVSNLWTRVGSMVSPLVKITGEVQPFIPNIIYGITALLGGSAALFLPETLNQPLPETIEDLENWSLRAKKPKQEPEVEKASQRIPLQPHGPGLGSS
Turning to B3, the Michaelis-Menten constant (Km) was 27 µM in [6] and 263 µM in data set [7].

B4: Solute carrier family 22 member 6 (Homo sapiens) (protein)
chain: MAFNDLLQQVGGVGRFQQIQVTLVVLPLLLMASHNTLQNFTAAIPTHHCRPPADANLSKNGGLEVWLPRDRQGQPESCLRFTSPQWGLPFLNGTEANGTGATEPCTDGWIYDNSTFPSTIVTEWDLVCSHRALRQLAQSLYMVGVLLGAMVFGYLADRLGRRKVLILNYLQTAVSGTCAAFAPNFPIYCAFRLLSGMALAGISLNCMTLNVEWMPIHTRACVGTLIGYVYSLGQFLLAGVAYAVPHWRHLQLLVSAPFFAFFIYSWFFIESARWHSSSGRLDLTLRALQRVARINGKREEGAKLSMEVLRASLQKELTMGKGQASAMELLRCPTLRHLFLCLSMLWFATSFAYYGLVMDLQGFGVSIYLIQVIFGAVDLPAKLVGFLVINSLGRRPAQMAALLLAGICILLNGVIPQDQSIVRTSLAVLGKGCLAASFNCIFLYTGELYPTMIRQTGMGMGSTMARVGSIVSPLVSMTAELYPSMPLFIYGAVPVAASAVTVLLPETLGQPLPDTVQDLESRWAPTQKEAGIYPRKGKQTRQQQEHQKYMVPLQASAQEKNGL
With B4, the figures for the Km in data set [8] and in data set [9] were 14 µM and 141 µM, respectively.
